Data from the supplement of paper PMC10567573.
± gives the standard deviation.

Experiment: protein stability index of a GFP-peptide fusion (GPS, HEK-293T) (PSI 1-6); higher = more stable
Conditions: c terminus: a fixed tail appended
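Also: 24-mer peptide tiles fused after GFP, lentivirally expressed, FACS-sorted into six equal bins by GFP/DsRed ratio, decoded by Illumina sequencing, PSI is the read-weighted mean bin number.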

Sequence	protein stability index (treatment: DMSO)	protein stability index (treatment: MLN4924 1 uM, 8 h)
ELSEAAEAQHGPHSAVARISRAQY [STX11]	4.53 ± 0.24	4.63 ± 0.15
KEYEKALKYVRGLLQTEPQNNQAK [FIS1]	2.86 ± 0.14	3 ± 0.45
CHEEVYAGSHQYPGRGVYLLKFDN [ACBD3]	2 ± 0.64	2.16 ± 0.8
GSQIHDQFILRVSPDLEWHAACLK [ISL2]	2.3 ± 0.43	2.66 ± 0.54
NQTALHLAAAHGHSEVVEELVSAD [RIPK4]	5.46 ± 0.082	5.36 ± 0.11
KSSVYRRYNDFVVFQEMLLHKFPY [SNX8]	2.45 ± 0.65	2.24 ± 0.39
NIRSARGNNPNGREAKMICFKSVA [ELOA2]	3.4 ± 0.15	3.34 ± 0.27
TARRLLSQVRALDRFQVPTTEVNA [NFE2L1]	3.02 ± 0.07	
TSLGLTYDGMLSDVQSMPKTGILI [MAGEA10]	1.93 ± 0.39	2.13 ± 0.41
PPPASQPVVKALFGASAAGGLSPV [CDC25A]	4.08 ± 0.14	4.17 ± 0.21
NKRLAKYRMRNVHPKPKLVRVLES [CLCN6]	3.1 ± 0.33	3 ± 0.29
SSCIPKAFGNPKFALQGLPLNCAP [IRX6]	2.46 ± 0.25	2.75 ± 0.18
ITCSSTMSYSCCLPSLGCRTSCSS [KRT34]	2.19 ± 0.16	2.1 ± 0.32
PLMVASAQSGERECHIVVLTDDDV [BTBD10]	3.71 ± 0.32	3.92 ± 0.15
AEKVNQDMCMKVPDDPEHLAARRQ [CRYL1]	5.27 ± 0.61	5.15 ± 0.26
GPLVPRLAGMANHGSPQLGEGMFQ [TBX5]	3.67 ± 0.26	3.75 ± 0.15
RHCPYLDTINRSVLDFDFEKLCSI [USP39]	2.61 ± 0.23	2.56 ± 0.3
EFRRWRDTGVAFELRDSSAYHVPN [DNAAF3]	2.75 ± 0.24	3 ± 0.32
QRDLSPTAEDAELSDFEECEETGE [FCHSD1]	5.55 ± 0.21	5.54 ± 0.21
QRDGSKSEDELDQASTPTDVRDID [CCND2]	5.62 ± 0.16	5.62 ± 0.14
DFTLSKTNMARIREIMEKFGKQPV [CPXM2]	2.71 ± 0.088	2.62 ± 0.33
CAKMEKDGYGMTPLLSASVTGHTN [FEM1C]	3.58 ± 0.26	3.55 ± 0.11
LLEERRPADSAQLLSLNSLLPESG [TFE3]	4.37 ± 0.42	4.54 ± 0.24

Sequence	protein stability index (treatment: DMSO)	protein stability index (treatment: MLN4924 1 uM, 8 h)
AEEYRLKEHYLTFEKSRYETYIHL [PSD2]	1.93 ± 0.2	2.01 ± 0.46
QSGRHLQTHSNTIVVSLQSKLASM [STX5]	2.79 ± 0.36	2.97 ± 0.28
MTELRQRVAHEPVAPPEDKESESE [CDS2]	5.39 ± 0.26	5.44 ± 0.23
ASSGDLTCGVCALELGSTEVLLDH [PLAGL1]	2.68 ± 0.4	2.82 ± 0.49
WFLVPISSVICNDITAYLFGFFFG [CDS1]	2.75 ± 0.036	3.16 ± 1
QKALYRRLATVHMSRMINKYKRRR [CLPTM1]	3.7 ± 0.22	3.53 ± 0.16
ALRNLPPLRAAHRRFNFDTDRPLL [SMG5]	2.72 ± 0.21	2.85 ± 0.45
FVAFALCMFCLYSFMPLVIKVTSA [SLC35F2]	3.2 ± 0.44	3.32 ± 0.68
LPMATVDIKNPEITTNRFYGPQVN [WASL]	3.4 ± 0.75	3.54 ± 0.34
TMTSSQSMNFSMMSTNTVGLGLPM [CLINT1]	3.02 ± 0.18	2.68 ± 0.083
ARLAADDFRVKYETELAMRQSVEN [KRT18]	4.39 ± 0.19	4.44 ± 0.21
SEFRALQFSLMLCAFVGALGGAAF [SPNS1]	3.14 ± 0.048	3.04 ± 0.79
PVHLVDKLPLPIALRSHLKSFSMA [RAB40B]	2.46 ± 0.2	2.27 ± 0.2
EEARRNRLMRDMAQLRLQLEVSQL [SMG5]	2.25 ± 0.27	2.41 ± 0.29
IRISMSHEEEPLGTAGPLALARDL [GMPPB]	3 ± 0.053	3.27 ± 0.34
PPGPKGDQGDEGKEGRPGIPGLPG [SCARA5]	5.69 ± 0.15	5.36 ± 0.41
KICESLNVPVDDSLVKELLRMCSH [EFHC1]	2.11 ± 0.21	2.09 ± 0.44
ELAPDFVGDILWEHLEILQKEDVK [ETS1]	3.95 ± 0.48	4.17 ± 0.29
VGGATLAQTTSEAAMEGATLDQTT [HDAC6]	5.44 ± 0.11	5.39 ± 0.26
VFWPQLPNGLEAAYEFADRDEVRF [MMP1]	2.86 ± 0.26	3.1 ± 0.3
GVMLTWPDGLMYQKFRNQFLSFSM [TMEM120A]	2.89 ± 0.98	2.69 ± 0.43
SNANYSVKKCIFLLFINHRLVEST [MLH1]	3.35 ± 0.46	3.25 ± 1.2
DFQPREEAMLYHNQTAELRELLEF [P3H4]	3.96 ± 0.28	4.01 ± 0.16

Sequence	protein stability index (treatment: DMSO)	protein stability index (treatment: MLN4924 1 uM, 8 h)
ADISEAEQRTIQAQKESLQNQHHS [APBB1IP]	5.2 ± 0.38	5.23 ± 0.15
KIMGVEEEDDDDDDDDNLPQLKKE [ANKRD40]	5.6 ± 0.24	5.46 ± 0.19
LDKLNFEAINFCRGLGSQASTVTE [ACSBG2]	3.36 ± 0.5	3.71 ± 0.24
WTTEQQQRFHEICSNLVKTRRRAV [ARL6IP1]	2.8 ± 0.2	3.07 ± 0.41
PYSTVDNPVYYGPSDFFIGAVIEV [EFHC1]	2.8 ± 0.48	3.13 ± 0.53
NHMYSCRFSRQCVVDKDKRNQCRY [HNF4A]	2.61 ± 0.057	2.56 ± 0.074
LTMTFPAGIVRVFSGTPPPPVLSF [FCHO1]	2.92 ± 0.5	3.13 ± 0.54
QCLVEGCTEKFKTSRDRKDHMVRM [ZNF511]	3.57 ± 0.27	3.95 ± 0.25
FNYLHTNCFEITLELSCDKFPPEE [CPN1]	2.5 ± 0.51	2.09 ± 0.42
RERREEDRAPAEQVPRSPVIKISY [PWWP2B]	4.34 ± 0.34	4.08 ± 0.18
TEIEEELKSLDKEISEAFTSTGFD [BCL2L13]	5.16 ± 0.27	5.26 ± 0.34
NDIMAYMFGFFFGRTPLIKLSPKK [CDS2]	2.03 ± 0.31	2.08 ± 0.22
KQIIRKHAQTFVALCATDVKFISN [CCND1]	2.26 ± 0.1	2.39 ± 0.055
RSELVEGCGWRCPEHGDRVAELFC [TRIM14]	2.86 ± 0.12	3.04 ± 0.36
AFEPEALGNLVEGMDFHRFYFENA [CAMK2D]	2.86 ± 0.44	2.78 ± 0.54
LGMYQKVTSYCRSATLVGFTVGSV [SLC19A2]	2.74 ± 0.6	2.73 ± 0.41
KQLVSPAAALLSNTTCQTENRLSV [PTGFR]	3.74 ± 0.25	3.99 ± 0.2
GDKGALQRLIVGNSALKDKEDQFG [INVS]	4.62 ± 0.21	4.72 ± 0.093
PASYTAPIMSGQGLAGFFASVAMI [SLC29A1]	2.59 ± 0.58	2.44 ± 0.48
TVFCLVVIFALCWFPLHLSRILKK [EDNRA]	2.41 ± 0.61	2.42 ± 1.3
RTHTGEQPYTCSICRRNFSRRSSL [ZNF75A]	3.19 ± 0.44	3.67 ± 0.47
EEPQWVPDKECRRCMQCDAKFDFL [ZFYVE21]	2.85 ± 0.45	2.95 ± 0.39
SIFYDLPQGSGFCLGQLNLEQRSE [SMAD6]	3.21 ± 0.21	3.45 ± 0.25

Sequence	protein stability index (treatment: DMSO)	protein stability index (treatment: MLN4924 1 uM, 8 h)
RGGSDPETTGIQIWSEVFTVEKPG [ATL3]	4 ± 0.59	4.09 ± 0.28
QELANIDPTWIESPKTNGHIENGP [SRPK2]	4.92 ± 0.32	4.63 ± 0.19
RTSLSSGATVRSFSINSRLASSLG [CDC14A]	2.76 ± 0.34	2.99 ± 0.48
GLQLPSTLPVSGNLLDVYSSQGVA [TFE3]	3.15 ± 0.53	3.4 ± 0.36
LVLSEDRKSVRYTRQKKNLPDSPL [TRIM15]	3.48 ± 0.33	3.77 ± 0.15
MENLPGLASGPGKYMPHLCQDSSG	4.05 ± 0.067	3.93 ± 0.12
ELAEATWCGISTDMWRSENQNRAY [ZBED1]	2.84 ± 0.33	2.8 ± 0.44
PQFTGILQLLQSRTSRKFLACRLT [INTS3]	2.18 ± 0.41	2.16 ± 0.27
LEAEIATYRRLLEDGEDFNLGDAL [KRT18]	4.41 ± 0.15	4.53 ± 0.25
EVESLTAARNACRAGTEPSDAIRV [TRIP13]	4.33 ± 0.15	4.51 ± 0.27
VVQGPDGRLELKPLLLRLPRICQR [FANCE]	2.35 ± 0.33	2.45 ± 0.15
RKGLQHGFFDFETFDVDEYEHYER [CDC14A]	3.93 ± 0.31	3.94 ± 0.41
DQFSALGLDPCLLEDELDKSVQGT [SLC6A17]	5.18 ± 0.14	5.19 ± 0.14
PLPQIPNLPFWVKEKANSLKNEIQ [SPATS1]	2.79 ± 0.45	3.4 ± 0.3
RPNSRHTPSFSGDSSSSCSDHCIT [VDR]	4.52 ± 0.086	4.45 ± 0.25
YQILTLEKDQEQVVMNLDSRLLIF [GMCL1]	2.77 ± 0.67	2.66 ± 0.7
DKTDISSGRARQQDEEMLELPAPA [MLH1]	5.42 ± 0.36	
ATTSASDSLKPEQLDIEEEGRPGA [TFE3]	5.5 ± 0.23	5.35 ± 0.12
SSVECYNLETNEWRYVSSLPQPLA [KLHL14]	2.6 ± 0.19	2.92 ± 0.24
ALKRFVNLVARHPLFSEDVVLKLF [SNX8]	2.38 ± 0.88	2.46 ± 0.1
YNKPTDDIVLMAQALEKIFLQKVA [BRD3]	2.45 ± 0.54	2.06 ± 0.44
